Values of other authors in PMC3865722.
Like-named read-outs stand apart in the source and are kept apart here.

Legend:
SRSF1 (Homo sapiens) [1] = biological target: SRSF1 (Homo sapiens) (UniProt Q07955)
SRSF1 (Homo sapiens) [2] = biological target: SRSF1 (Homo sapiens) (UniProt Q07955); remark: listed apart in the source

Chain of SRSF1 (Homo sapiens) (Q07955 2-248): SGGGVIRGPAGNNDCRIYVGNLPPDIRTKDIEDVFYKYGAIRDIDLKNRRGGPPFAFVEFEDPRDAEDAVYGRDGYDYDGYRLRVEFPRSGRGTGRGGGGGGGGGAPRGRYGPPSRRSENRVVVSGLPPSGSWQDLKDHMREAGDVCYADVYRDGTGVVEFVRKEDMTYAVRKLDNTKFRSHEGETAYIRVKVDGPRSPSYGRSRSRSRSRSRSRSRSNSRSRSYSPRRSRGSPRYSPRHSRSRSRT
Chain of CLK1 (P49759 whole entry): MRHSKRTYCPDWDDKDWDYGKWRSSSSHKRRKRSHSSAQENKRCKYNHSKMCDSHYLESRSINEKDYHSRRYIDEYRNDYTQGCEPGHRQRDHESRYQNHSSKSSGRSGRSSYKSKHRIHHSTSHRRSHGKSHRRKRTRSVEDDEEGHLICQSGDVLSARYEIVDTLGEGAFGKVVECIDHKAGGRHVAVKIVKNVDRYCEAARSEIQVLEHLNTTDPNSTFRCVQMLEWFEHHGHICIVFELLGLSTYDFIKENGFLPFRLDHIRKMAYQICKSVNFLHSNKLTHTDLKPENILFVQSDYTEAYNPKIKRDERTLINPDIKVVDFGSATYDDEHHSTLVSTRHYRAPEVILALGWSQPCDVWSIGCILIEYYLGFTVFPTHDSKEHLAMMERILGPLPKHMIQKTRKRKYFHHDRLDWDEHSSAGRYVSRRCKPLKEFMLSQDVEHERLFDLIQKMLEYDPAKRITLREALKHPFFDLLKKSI

Kd (SRSF1 (Homo sapiens) [1])	Kd (SRSF1 (Homo sapiens) [2])	Substance
< 100 nM	–	CLK1 (from UniProt P49759)
–	< 100 nM	SRPK1 (from UniProt Q96SB4)
